# Like-named read-outs stand apart in the source and are kept apart here.
# How the values were obtained:
# [1] = molecular target: cynomolgus FcRn (cynomolgus) (UniProt Q8SPV9); assay: SPR
# [2] = molecular target: cynomolgus CD16 (cynomolgus) (UniProt Q8SPW2); assay: SPR
# [3] = molecular target: cynomolgus NKp46 (Gln17-Asn254) (cynomolgus) (UniProt Q95JB9); assay: SPR; details: bispecific antibody
# [4] = molecular target: human CD16a (human FcγRIIIA), V isoform (human) (UniProt P08637); assay: SPR
# Sequence of human CD16a (human FcγRIIIA), V isoform (human) (P08637 17-208 F176V): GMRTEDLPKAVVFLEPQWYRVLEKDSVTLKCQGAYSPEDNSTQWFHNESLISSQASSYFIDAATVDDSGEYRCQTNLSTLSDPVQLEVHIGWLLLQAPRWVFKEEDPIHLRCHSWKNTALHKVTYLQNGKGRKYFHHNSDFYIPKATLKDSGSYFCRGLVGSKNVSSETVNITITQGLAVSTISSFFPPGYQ
# [5] = molecular target: cynomolgus CD32b (cynomolgus) (UniProt Q8SPW3); assay: SPR
# [6] = molecular target: cynomolgus CD32a (cynomolgus) (UniProt Q8SPW4); assay: SPR
# cynomolgus CD123 = assay: SPR; details: bispecific antibody
# [7] = molecular target: human CD32b (human FcγRIIB) (human) (UniProt P31994); assay: SPR
# Sequence of human CD32b (human FcγRIIB) (human) (P31994 43-310): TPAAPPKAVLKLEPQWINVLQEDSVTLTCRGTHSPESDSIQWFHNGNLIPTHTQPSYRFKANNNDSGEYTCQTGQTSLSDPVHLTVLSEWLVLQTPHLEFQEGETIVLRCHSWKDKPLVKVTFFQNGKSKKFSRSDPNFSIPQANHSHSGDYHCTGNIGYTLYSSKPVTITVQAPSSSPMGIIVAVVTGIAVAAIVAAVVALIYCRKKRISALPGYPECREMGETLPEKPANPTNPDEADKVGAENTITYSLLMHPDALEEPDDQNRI
# [8] = molecular target: cynomolgus CD64 (cynomolgus) (UniProt Q8SPW5); assay: SPR
# [9] = molecular target: human CD16b (human FcγRIIIB) (human) (UniProt O75015); assay: SPR
# Sequence of human CD16b (human FcγRIIIB) (human) (O75015 17-200): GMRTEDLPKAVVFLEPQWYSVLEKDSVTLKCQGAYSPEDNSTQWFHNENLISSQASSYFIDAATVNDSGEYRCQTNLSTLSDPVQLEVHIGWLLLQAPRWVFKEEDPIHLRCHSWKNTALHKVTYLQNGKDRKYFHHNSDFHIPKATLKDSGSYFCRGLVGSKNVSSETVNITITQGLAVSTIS
# [10] = molecular target: human CD32a (human FcγRIIA) (human) (UniProt P12318); assay: SPR
# Sequence of human CD32a (human FcγRIIA) (human) (P12318 34-317): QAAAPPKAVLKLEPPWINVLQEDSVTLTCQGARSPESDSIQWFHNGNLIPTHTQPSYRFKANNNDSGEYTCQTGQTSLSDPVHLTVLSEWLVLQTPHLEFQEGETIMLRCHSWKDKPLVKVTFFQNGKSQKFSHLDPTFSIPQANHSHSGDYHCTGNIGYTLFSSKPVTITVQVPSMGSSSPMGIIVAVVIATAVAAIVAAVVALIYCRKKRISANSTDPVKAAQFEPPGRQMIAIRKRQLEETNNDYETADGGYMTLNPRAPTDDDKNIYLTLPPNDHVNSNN
# [11] = molecular target: human neonatal Fc receptor (human) (UniProt P55899); assay: SPR; details: bispecific antibody
# Sequence of human neonatal Fc receptor (human) (P55899 24-365): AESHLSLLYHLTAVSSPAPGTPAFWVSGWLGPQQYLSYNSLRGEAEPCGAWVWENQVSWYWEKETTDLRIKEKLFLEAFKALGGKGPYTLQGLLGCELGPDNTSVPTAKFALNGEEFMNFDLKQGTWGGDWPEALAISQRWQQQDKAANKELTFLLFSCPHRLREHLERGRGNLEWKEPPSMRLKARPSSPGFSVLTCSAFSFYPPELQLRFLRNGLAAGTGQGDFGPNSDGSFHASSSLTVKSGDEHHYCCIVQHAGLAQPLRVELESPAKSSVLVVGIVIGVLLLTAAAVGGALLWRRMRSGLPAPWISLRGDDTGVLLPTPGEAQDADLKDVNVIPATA
# [12] = molecular target: human CD16a (human FcγRIIIA), F isoform (human) (UniProt P08637); assay: SPR
# Sequence of human CD16a (human FcγRIIIA), F isoform (human) (P08637 17-208): as the sequence (P08637 17-208 F176V) above, with V160F counted along it
# [13] = molecular target: human CD64 (human FcγRI) (human) (UniProt P12314); assay: SPR
# Sequence of human CD64 (human FcγRI) (human) (P12314 16-374): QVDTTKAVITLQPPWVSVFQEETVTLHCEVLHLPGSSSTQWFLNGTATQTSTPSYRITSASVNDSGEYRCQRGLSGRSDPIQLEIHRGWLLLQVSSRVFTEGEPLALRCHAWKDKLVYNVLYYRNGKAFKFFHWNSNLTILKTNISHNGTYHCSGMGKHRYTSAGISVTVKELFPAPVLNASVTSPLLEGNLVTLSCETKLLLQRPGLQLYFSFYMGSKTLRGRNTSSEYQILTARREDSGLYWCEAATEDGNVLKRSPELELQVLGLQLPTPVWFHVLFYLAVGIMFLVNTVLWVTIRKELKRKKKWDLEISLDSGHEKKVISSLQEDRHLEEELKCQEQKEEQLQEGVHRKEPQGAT
# [14] = molecular target: human NKp46 (Gln22-Asn255) (Homo sapiens) (UniProt O76036)
# Target sequence in this assay (O76036 22-255): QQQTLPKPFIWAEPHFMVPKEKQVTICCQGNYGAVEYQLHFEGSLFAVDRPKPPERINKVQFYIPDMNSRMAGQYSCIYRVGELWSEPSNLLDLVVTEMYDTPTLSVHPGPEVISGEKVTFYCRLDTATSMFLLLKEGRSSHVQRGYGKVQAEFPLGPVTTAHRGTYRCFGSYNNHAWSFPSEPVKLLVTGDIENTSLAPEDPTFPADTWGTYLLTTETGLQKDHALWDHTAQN
# [15] = molecular target: recombinant human CD123 (Homo sapiens) (UniProt P26951); assay: SPR; Biacore T200, CM5 chip, 25 °C; CD123-NKCE (0.06 µg/ml) captured on anti-human Fc chip (human antibody capture kit); NKp46 or CD123 injected at 1.56 to 100 nM in HBS-EP+; 1:1 binding model with mass transport limitation; monovalent KD
# [16] = molecular target: human NKp46 (Gln22-Asn255) (Homo sapiens) (UniProt O76036); assay: as above
# Sequence of cynomolgus CD16 (cynomolgus) (Q8SPW2 17-254): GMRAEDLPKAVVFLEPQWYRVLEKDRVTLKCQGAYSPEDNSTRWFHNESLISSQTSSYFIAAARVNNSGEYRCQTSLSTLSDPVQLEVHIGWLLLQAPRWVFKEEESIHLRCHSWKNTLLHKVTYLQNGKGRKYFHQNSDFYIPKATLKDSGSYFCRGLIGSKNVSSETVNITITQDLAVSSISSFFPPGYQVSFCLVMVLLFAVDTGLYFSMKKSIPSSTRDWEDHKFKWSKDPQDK
# Sequence of cynomolgus FcRn (cynomolgus) (Q8SPV9 24-365): as the sequence (P55899 24-365) above, with N39D, E44Q, G99S, S189G, S190N, L217M, S269T, V319S, L332S, V335I counted along it
# Sequence of cynomolgus NKp46 (Gln17-Asn254) (cynomolgus) (Q95JB9 17-254): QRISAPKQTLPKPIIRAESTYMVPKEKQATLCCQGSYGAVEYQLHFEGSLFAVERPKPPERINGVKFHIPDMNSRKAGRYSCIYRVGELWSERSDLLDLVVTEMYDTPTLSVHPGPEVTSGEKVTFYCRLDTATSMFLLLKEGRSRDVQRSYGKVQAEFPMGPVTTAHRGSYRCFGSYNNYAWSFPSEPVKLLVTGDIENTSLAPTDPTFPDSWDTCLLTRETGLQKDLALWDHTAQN
substance,measurement,setting,value
CD123-NKCE (trifunctional NKp46-CD16a-NK cell engager targeting CD123),Kd,[1]; bispecific antibody,282 nM
same,Kd,[2]; bispecific antibody,466 nM
same,Kd,[3],29 nM
same,Kd,[4]; bispecific antibody,462 nM
same,Kd,[5]; bispecific antibody,1890 nM
same,Kd,[6]; bispecific antibody,5.18 µM
same,Kd,cynomolgus CD123,1.23 nM
same,Kd,[7]; bispecific antibody,3.2 µM
same,Kd,[8]; bispecific antibody,12 nM
same,Kd,[9]; bispecific antibody,6.69 µM
same,Kd,[10]; bispecific antibody,1220 nM
same,Kd,[11],109 nM
same,Kd,[12]; bispecific antibody,2610 nM
same,Kd,[13]; bispecific antibody,0.2 nM
CD123-NKCE (trifunctional NKp46-CD16a-NK cell engager targeting CD123) (bispecific antibody),"NK cell-mediated cytotoxicity (Cr-51 release) against MOLM-13 cells with NK cells from healthy donors, geometric mean EC50; NKp46 and CD16a coengaged",[14],4.2 pM
same,"NK cell-mediated cytotoxicity (Cr-51 release) against MOLM-13 cells with NK cells from healthy donors, mean observed maximum specific lysis; NKp46 and CD16a coengaged",[14],71%
same,Kd,[15],0.4 nM
same,Kd,[16],16.6 nM
Human IgG1 control,Kd,[1],237 nM
same,Kd,[2],580 nM
same,Kd,[4],575 nM
same,Kd,[5],2320 nM
same,Kd,[6],6.34 µM
same,Kd,[7],4.23 µM
same,Kd,[8],18 nM
same,Kd,[9],7.54 µM
same,Kd,[10],1570 nM
same,Kd,[12],2820 nM
same,Kd,[13],0.2 nM

# From paper PMC10497414
